# From US20220073643A1 (NANJING GENSCRIPT BIOTECH, published 2022)
# Molecular target: human Claudin18.2 (human)
# Assay: cell-based or functional assay
Binder,CDC % Relative activity [%],CDC EC50 [µg/mL]
"252C10F6 (antibody, V domains shown) VH: QVHLKQSGRGLVQPSQSLSITCTVSGFSLPNYGVHWVRQPPGKGLEWLGVIWSGGNTDYNTVFKARLSITKDNSKSQVFFKMNSLQADDTAIYYCARNLYGNYDYAMDYWGQGTSVTVSS VL: DIVMTQSPATLSVTPGDRVSLSCRASQSISDYLHWYQQKSHESPRLLIKYASQSISGIPSRFSGSGSGSEFTLSINSVEPEDVGVYYCQNGHSFPFTFGSGTKLEIK",3.42,53.6
"181C7B2 (antibody, V domains shown) VH: QVQLKQSGPGLVQPSQSLSITCTVSGFSLTYYGVHWVRQSPGKGLEWLGVIWRGGNTDYNAAFISRLSINKDNSKSQVFFKMNSLQPNDTAIYYCARAAYYGNCFDYWGQGTTLTVSS VL: DIVMTQSPSSLTVTAGEKVTMSCKSSQSLLNSGNQKNYLTWYQQKPGQPPKLLIYWASTRESGVPDRFTGSGSGTDFTLTISSVQAEDLAVYYCQNNYIYPLTFGAGTKLELK",44,3.59
"258D11C4 (antibody, V domains shown) VH: QAYLQQSGAELVRSGASVKMSCKASGYTFSSHNMHWVKQTPGQGLEWIGYIYPGNGGTNYNQKFKGKATLTADTSSSTAYMQISSLTSEDSAVYFCTRDYYGNSFAYWGQGTLVTVSA VL: DIVMTQSPSSLTEKAGERVSMSCKSSQSLFNSGNQKNYLTWYQQKPGQPPKLLIYWASTRQSGVPDRFTGSGSGTDFTLTISSVQAEDLAVYYCQNDYWFPFTFGAGTKLELK",142,1.05
"252F1B10 (antibody, V domains shown) VH: QAYLQQSGAELVRSGASVKMSCKASGYTFTSHNMHWVKQTPGQGLEWIGYIYPGNGGTNYNQKFKGKATLTADTSSSTAYMQINSLTSEDSAVYFCTRDYYGNSFAYWGQGTLVTVSA VL: DIVMTQSPSSLTEKAGERVSMSCKSSQSLFNSGNQKNYLTWYQQKPGQPPKLLIYWASTRESGVPDRFTGSGSGTDFTLTISSVQAEDLAVYYCQNDYRYPFTFGAGTKLELK",104,1.76
"194A2F7 (antibody, V domains shown) VH: QIQLVQSGPELKKPGETVKISCKASGYTFTDYLIHWVKQAPGKGLKWMGWINTETGEPTYADDFKGRFALSLETSASTACLQINNLKNEDTATYFCARIYYGNSFDYWGQGTTLTVSS VL: DIVMTQSPSSLPVTAGEKVTMTCKSSQNLLNSGNQKSYLTWYQQKPGQPPKLLIYWASTRETGVPDRFTGSGSGTDFTLTISSVQAEDLAVYYCQNAYRFPFTFGAGTRLELK",51.7,3.06
"253E4F7 (antibody, V domains shown) VH: EIQLQQSGPELMKPGASVKMSCKASGYSFTSYYIHWVKQSHGKSLEWIGYIDPFNGGTRYNQKFEGKATLTVDKSSTTAYMHLSSLTSEDSTVYYCASLRFLAYWGQGTLVTVSA VL: DIVMTQSPSSLTVTAGEKVTMTCKSSQSLLNSGNQKNYLTWYQQKPGQPPKVLISRASTRQSGVPDRFTGSGSGTDFTLTISSVQAEDLAVYYCQNDYSYPLTFGAGTKLELK",174,1.06
"257G7B9 (antibody, V domains shown) VH: QAYLQQSGAELVRSGASVKMSCKASGYTFTSHNLHWVKQTPGQGLEWIGYIYPGNGNTNYNQKFKGKATLTADTSSSTAYMQISSLTSEDSAVYFCTRDYYGNSFAYWGQGTLVTVSA VL: DIVMTQSPSSLTEKAGERVSMSCKSSQSLFNSGNQKNYLTWYQQKPGQPPKLLIYWASTRESGVPDRFTGSGSGTDFTLTISSVQAEDLAVYYCQNNYWFPFTFGAGTKLELK",147,1.01
"250F4G1 (antibody, V domains shown) VH: QAYLQQSGAELVRSGASVKMSCKASGYTFTSHNMHWVKQTPGQGLEWIGYIYPGNGRTNYNQKFKGKATLTADTSSSTAYMQISSLTSEDSAVYFCTRDYYGNSFAYWGQGTLVTVSA VL: DIVMTQSPSSLTEKVGERVSMSCKSSQSLFNSGNQKNYLTWYQQKPGQPPKLLIYWASTRESGVPDRFTGSGSGTDFTLTISSVQAEDLAVYYCQNDYWYPFTFGAGTKLELK",112,1.64
"257B1G9 (antibody, V domains shown) VH: QAYLQQSGAELVRSGASVKMSCKASGYTFTSHNMHWVKQTPGQGLEWIGYIYPGNGGTNYNQKFKGKATLTADTSSSTAYMQISSLTSEDSAVYFCTRDYYGNSFAYWGQGTLVTVSA VL: DIVMTQSPSSLTERAGERVSMSCKSSQSLFNSGNQKNYLTWYQQKPGQPPKLLIYWASTRESGVPDRFTGSGSGTDFTLTISSVQAEDLAVYYCQNDYRYPFTFGAGTKLELK",487,0.305
"257G7F7 (antibody, V domains shown) VH: QAYLQQSGAELVRSGASVKMSCKASGYTFTSHNLHWVKQTPGQGLEWIGYIYPGNGNTNYNQKFKGKATLTADTSSSTAYMQISSLTSEDSAVYFCTRDYYGNSFAYWGQGTLVTVSA VL: DIVMTQSPSSLTEKAGERVSMSCKSSQSLFNSGNQKNYLTWYQQKPGQPPKLLIYWASTRESGVPDRFTGSGSGTDFTLTISSVQAEDLAVYYCQNNYWFPFTFGAGTKLELK",141,1.06
"259B4D4 (antibody, V domains shown) VH: EIQLQQSGPELMKPGASVRISCKASGYSFTSYYMHWMKQSHVKSLEWIGYIDPFNGNTRYNQKFKDKATLTVDKSSTTAYMHLSSLTSEDSAVYFCASLRFFAYWGQGTLVTVSA VL: DIVMTQSPSSLTVTAGEKVTMSCNSSQSLLNSGNQKNYLTWYQQKPGQPPKLLIYWASSRESGVPDRFTGSGSGTDFTLTISTVQAEDLAVYYCQNDYSFPLTFGAGTRLELK",88.2,1.69
"250F4G4 (antibody, V domains shown) VH: QAYLQQSGAELVRSGASVKMSCKASGYTFTSHNMHWVKQTPGQGLEWIGYIYPGNGRTNYNQKFKGKATLTADTSSSTAYMQISSLTSEDSAVYFCTRDYYGNSFAYWGQGTLVTVSA VL: DIVMTQSPSSLTEKVGERVSMSCKSSQSLFNSGNQKNYLTWYQQKPGQPPKLLIYWASTRESGVPDRFTGSGSGTDFTLTISSVQAEDLAVYYCQNDYWYPFTFGAGTKLELK",126,1.45
"186G12H3 (antibody, V domains shown) VH: EVMLVESGGGLVKPGGSLKLSCAASRFTLSSYAMSWVRQTPEKRLEWVATISSGGSYTYYFDSVKGRFTISRDTAKNTLNLQMSSLRSEDTAMYYCARLYYGNALDYWGQGTSVTVSS VL: DIVMTQSPSSLTVTAGEKVTVSCKSSQSLLNSGNQKNYLTWYQQKPGQPPKLLIYWASTRESGVPDRFTGSGSGTDFTLTISSVQAEDLAVYYCQNNYIYPLTFGAGTTLELK",114,1.39
"256C3D3 (antibody, V domains shown) VH: QAYLQQSGAELVRSGASVKMSCKASGYAFTSHNMHWVKQTPGQGLEWIGYISPGNGYTNYNQKFRGKATLTADTSSSTAYMQIGSLTSEDSAVYFCTRDYYGNSFAYWGQGTLVTVSA VL: DIVMTQSPSSLTEKAGERVSMSCKSSQSLFNSGNQKNYLTWYQQKPGQPPKLLIYWASTRESGVPDRFTGSGSGTDFTLTISSVQAEDLAVYYCQNNYWFPFTFGAGTKLELK",165,1.11
"257F1E11 (antibody, V domains shown) VH: QAYLQQSGAELVRSGASVKMSCKASGYTFTSHNIHWVKQTPRQGLEWIGYIYPGNGGTNYNQKFKGKATLTADTSSSTAYMQISSLTSEDSAVYFCTRDYYGNSFAYWGQGTLVTVSA VL: DIVMTQSPSSLTEKAGERVSMSCKSSQSLFNSGNQKNYLTWYQQKPGQPPKLLIYWASTRESGVPDRFTGSGSGTDFTLTISSVQAEDLAIYYCQNDYWYPFTFGAGTKLELK",174,0.855
"254A8D5 (antibody, V domains shown) VH: EVMLVESGGGLVKPGGSLKLSCAASGFTFSSYTVSWVRQTPEKRLEWVATSIVGSTYTYFPDSVKGRFTISRDFAKNTLFLQMSSLRSEDTAMYYCSRLGRGNAMDYWGQGTSVSVSS VL: DIVMTQSPSSLTVTAGEKVTLNCRSSQSLLNSGNQKNYLTWYQQKPGQPPKLLIYWASTRESGVPDRFTGSGSGTDFTLTISSVQADDLAVYYCQNGYSYPFTFGSGTKLEIK",154,1.19
"248G8E8 (antibody, V domains shown) VH: QVQLKESGPGLVAPSQSLSITCTVSGFSLTTYGVSWVRQPPGKGLEWLGVIWGDGSTNYHSTLISRLRISKDKSKSQVFLKLNSLQTDDTATYYCAKAGRGNALDYWGQGTSVTVSS VL: DIVLTQSPSSLTVTAGEKVTMSCKSSQSLLNSGNQKNYLTWYQQKPGQPPKLLIYWASTRESGVPDRFTGSGSGTDFTLTISSVQAEDLAVYYCQNDYSFPLTFGAGTKLELK",114,1.61
"194D3B2 (antibody, V domains shown) VH: QAYLQQSGAELVRSGASVKMSCKASGYPFTSYNMHWVKQTPGQGLEWVGYIYPGNGGTNYNQKFRDKATLTADTSSSTAYMQISRLTSDDSAVYFCLTGRGFAYWGQGTLVTVSA VL: DIVMTQSPSSLIVTPGERVTMSCKSSQSLLNSGNQKNYLTWYQQKPGQPPKLLIYRASTRESGVPDRFTGSGSGTDFTLTISSVQAEDLAVYYCQNDYSYPLTFGIGTKLELK",574,0.275
"252E7C9 (antibody, V domains shown) VH: QTYLQQSGAELVRSGASVKMSCRTSGYSFTSHNMHWVKQTPGQGLEWIGYIYPGNGGSYYNQKFKGKAILTADTSSSTAYMQISSLTSEDSAVYFCTRDYYGNSFVYWGQGTLVTVSA VL: DVVMTQSPSSLTEKTGEKVSMSCKSSQSLLNSGNQKNYLTWYQQKPGQPPKLLIYWASTRESGVPDRFTGSGSGTDFTLTISSLQTEDLAIYYCQNNFRYPFTFGAGTKLELK",154,1.19
